Measurements from patent US20230340111A1 (published 2023).
Residue numbers refer to the chain shown, from its start.

Legend:
[1] = target: T1, murine FOLR1, extracellular domain, recombinant (murine, UniProt P35846 25-232); experiment: ELISA; coated recombinant protein, HA-tagged VHH in bacterial extract, anti-HA detection; A405 antigen well / blank well
T1 construct: extracellular domain; Bought protein; also called mouse FOLR1
Description: (§1) The day before, 0.1 µg recombinant protein at a concentration of 1 µg/mL in 100 mM NaHCO3, pH 8.2 was coated in a 96-well ELISA plate (Nunc MaxiSorp). Per VHH clone also a blank coated well was foreseen (only buffer). The wells were overcoated with protein-free T20 (PBS) blocking buffer (Pierce). After washing with PBS, pH7.4, 0.05% Tween, VHH-containing bacterial extract was added to every well. Binding of HA-tagged VHHs was detected by using mouse anti-HA.11 epitope tag (clone 16B12, Biolegend) as the primary Ab and goat anti-mouse IgG (whole molecule) alkaline phosphatase conjugate (Sigma-Aldrich) as the secondary Ab, with thorough washing with PBS, pH 7.4, 0.05% Tween in between. Signals were developed using phosphatase substrate (Sigma-Aldrich) in AP blot buffer (100 mM NaCl, 50 mM MgCl2, 100 mM Tris, pH 9.5). The absorbance was determined at 405 nm using an absorbance microplate reader (Molecular Devices). Per clone the ratio was determined between the absorbance in the antigen-coated well versus the well without antigen.

[2] = target: T2, human folate receptor beta (FOLR2), extracellular domain, recombinant (human, UniProt P14207 17-228, limits assumed); experiment: as above
T2 construct: extracellular domain; Bought protein; also called human FOLR2
Description: as §1

[3] = target: T3, human folate receptor gamma (FOLR3), recombinant (human, UniProt P41439 23-245, limits assumed); experiment: as above
T3 construct: extracellular domain; Bought protein; also called human FOLR3
Description: as §1

[4] = target: human FOLR1 recombinant protein (extracellular domain of human folate receptor alpha) (human) (UniProt P15328); experiment: as above
[5] = target: T1, murine FOLR1, extracellular domain, …; experiment: ELISA, coated recombinant protein, HA-tagged VHH in bacterial extract
Description: as §1

[6] = target: T2, human folate receptor beta (FOLR2), …; experiment: as above
Description: as §1

[7] = target: T3, human folate receptor gamma (FOLR3), …; experiment: as above
Description: as §1

[8] = target: T4, human FOLR1 recombinant protein (extracellular domain of human folate receptor alpha) (human, UniProt P15328 25-233); experiment: SPR (Biacore T200), single cycle kinetics, His6-tagged VHH immobilized on CM5, human FOLR1 as analyte, 1:1 fit
T4 construct: Bought recombinant protein (Sino Biological); also called hFOLR1; FR-alpha
Description: The kinetic parameters of antigen binding for purified VHHs A1, A2 and A3 were determined via surface plasmon resonance with a Biacore T200 instrument (GE Healthcare) using single cycle kinetics mode. While example 4d provides a first and preferred way of assessing the kinetic parameters of antigen binding for VHHs using surface plasmon resonance, this example provides an alternative setup for using surface plasmon resonance to assess the kinetic parameters of antigen binding, inverting the analyte and immobilized ligand. His₆-tagged VHH A1, A2 or A3 was immobilized in 10 mM sodium acetate, pH 5.5 on a CM5 chip (GE Healthcare) via amine coupling chemistry to 160 RU. The human FOLR1 recombinant protein (Sino Biological) was analyzed in a threefold serial dilution in HBS (38.5 nM-0.47 nM) with an analyte flow rate of 30 µl/min. The association phase took 180 s for every concentration and the dissociation phase 900 s. Regeneration was done by a single injection of 50 mM glycine-HCl, pH 2.5, 2 M MgCl2 for 30 s at 30 µl/min, followed by 120 s stabilization. Binding curves were fitted using a ‘1:1 (antigen:analyte)’ binding model in Biacore T200 evaluation software.

[9] = target: T4, human FOLR1 recombinant protein …; experiment: SPR dual injection on immobilized human FOLR1, 250 nM; competitor (1st VHH, saturating) A5; by the legend the value is of the 2nd VHH
Description: (§2) Competitive binding characteristics of His₆-tagged VHHs were determined via surface plasmon resonance with a Biacore T200 instrument (GE Healthcare). Immobilization of human FOLR1 recombinant protein (Sino Biological) and regeneration were performed as described below for kinetic measurements.
(§3) Table 8: Side-by-side comparison of His₆-tagged VHHs A1, A2, A3, A4, A5 for binding to human FOLR1 to identify competitive binding characteristics. Binding was measured in surface plasmon resonance with immobilized human FOLR1 recombinant protein as the ligand. After saturation of the ligand with VHH 1 an equimolar mixture of VHH 1 and VHH 2 was injected. Percentages express the loss in response level of VHH 2, relative to the response when VHH 2 was injected alone.

[10] = target: T4, human FOLR1 recombinant protein …; experiment: SPR dual injection on immobilized human FOLR1, 250 nM; competitor (1st VHH, saturating) A4; by the legend the value is of the 2nd VHH
Description: as §2, §3

[11] = target: T4, human FOLR1 recombinant protein …; experiment: SPR (Biacore T200), human FOLR1 immobilized on CM5, His6-tagged VHH as analyte, 1:1 fit
Description: The kinetic parameters of antigen binding by purified VHHs were determined via surface plasmon resonance with a Biacore T200 instrument (GE Healthcare). The human FOLR1 recombinant protein (Sino Biological) was immobilized in 10 mM sodium acetate, pH 5.5 on a CM5 chip (GE Healthcare) via amine coupling chemistry to 500 RU. His₆-tagged VHHs were analyzed in a twofold serial dilution in HBS (125 nM-0.488 nM for VHHs A4 and A5; 10 nM-0.039 nM for VHHs A1, A2 and A3) with an analyte flow rate of 30 µl/min. The association phase took 180 s (A4-A5) or 450 s (A1-A3) and the dissociation phase 600 s (A4-A5) or 900 s (A1-A3). Regeneration was done by a single injection of 50 mM glycine-HCl, pH 2.5, 2 M MgCl₂ for 30 s at 30 µl/min, followed by 120 s stabilization. Binding curves were fitted using a ‘1:1 (antigen:analyte)’ binding model in Biacore T200 evaluation software.

[12] = target: T4, human FOLR1 recombinant protein …; experiment: SPR dual injection on immobilized human FOLR1, 250 nM; competitor (1st VHH, saturating) A3; by the legend the value is of the 2nd VHH
Description: as §2, §3

[13] = target: T4, human FOLR1 recombinant protein …; experiment: SPR dual injection on immobilized human FOLR1, 250 nM; competitor (1st VHH, saturating) A1; by the legend the value is of the 2nd VHH
Description: as §2, §3

[14] = target: T5, human FOLR1 expressed on SKOV-3 ovarian carcinoma cells (human, UniProt P15328 25-234); experiment: saturation binding of 131I-labelled His6-tagged VHH on SKOV-3 cells (0-300 nM); non-specific binding by 100-fold unlabelled VHH
T5 construct: Naturally expressed receptor on SKOV-3 cells; also called human FOLR1pos SKOV-3 cancer cells; human FOLR1-expressing cell line SKOV-3
Description: In a first part, their in vitro behaviour was assessed by means of investigating their cellular binding and retention over time. The binding potential of the resulting radioconjugates was assessed to confirm that this was not affected by the introduction of ¹³¹I-SGMIB into the amino acid sequence of the different VHHs. To this, human FOLR1^pos SKOV-3 cancer cells were incubated with serial dilutions with concentrations ranging from 0 to 300 nM of the different ¹³¹I-labelled, His₆ tagged VHHs. A 100-fold excess of the corresponding unlabeled VHH was added in parallel to saturate the human FOLR1 receptors expressed on cancer cells, to assess non-specific binding.

[15] = target: T5, human FOLR1 expressed on SKOV-3 ovarian …; experiment: cellular retention on SKOV-3 cells: 10 nM 131I-VHH 1 h at 4 C, then up to 24 h at 37 C; membrane-bound plus internalized fraction
Description: The in vitro cellular retention of the different His₆- and untagged ¹³¹I-labeled VHHs was assessed on the same cancer cells. In this particular case, human FOLR1^pos SKOV-3 cancer cells were incubated with 10 nM ¹³¹I-labelled VHHs for 1h at 4° C., after which the unbound fraction was collected. A 100-fold excess of the corresponding unlabeled VHH to assess non-specific binding. Next, the cells were incubated with fresh medium up to 24 h at 37° C., after which the dissociated fraction was collected. Afterwards, the cells were washed with 0.05 M glycine pH 2.8 to collect the membrane-bound fraction. Finally, cells were solubilized with 1 M NaOH at room temperature to collect the internalized fraction. The sum of the membrane-bound and internalized fractions corresponds to the total cell-associated fraction.

T4 sequence (P15328 25-233): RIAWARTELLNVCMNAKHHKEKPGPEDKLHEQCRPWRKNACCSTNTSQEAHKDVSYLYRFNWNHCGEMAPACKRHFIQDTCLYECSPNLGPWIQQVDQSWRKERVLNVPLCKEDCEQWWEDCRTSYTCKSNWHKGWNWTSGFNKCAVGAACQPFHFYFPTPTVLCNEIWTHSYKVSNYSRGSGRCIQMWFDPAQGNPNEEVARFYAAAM
T5 sequence (P15328 25-234 limits assumed): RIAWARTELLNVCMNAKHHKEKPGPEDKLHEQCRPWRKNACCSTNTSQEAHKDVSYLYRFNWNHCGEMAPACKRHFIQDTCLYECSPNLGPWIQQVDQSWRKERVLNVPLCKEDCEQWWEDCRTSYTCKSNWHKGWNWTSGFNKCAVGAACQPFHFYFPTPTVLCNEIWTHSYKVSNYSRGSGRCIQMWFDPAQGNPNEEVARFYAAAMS
T2 sequence (P14207 17-228 limits assumed): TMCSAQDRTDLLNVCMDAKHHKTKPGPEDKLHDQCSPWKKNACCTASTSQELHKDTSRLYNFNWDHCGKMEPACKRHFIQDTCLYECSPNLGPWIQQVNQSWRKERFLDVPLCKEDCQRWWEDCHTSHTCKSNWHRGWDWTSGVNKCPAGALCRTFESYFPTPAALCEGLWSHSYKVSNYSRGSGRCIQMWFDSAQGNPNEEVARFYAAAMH
T3 sequence (P41439 23-245 limits assumed): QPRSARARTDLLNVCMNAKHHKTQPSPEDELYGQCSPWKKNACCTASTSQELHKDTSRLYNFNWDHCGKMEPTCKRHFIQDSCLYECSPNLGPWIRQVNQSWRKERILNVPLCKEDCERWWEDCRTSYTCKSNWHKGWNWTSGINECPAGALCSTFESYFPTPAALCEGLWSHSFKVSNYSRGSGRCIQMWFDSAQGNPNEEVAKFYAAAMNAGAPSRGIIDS
T1 sequence (P35846 25-232 limits assumed): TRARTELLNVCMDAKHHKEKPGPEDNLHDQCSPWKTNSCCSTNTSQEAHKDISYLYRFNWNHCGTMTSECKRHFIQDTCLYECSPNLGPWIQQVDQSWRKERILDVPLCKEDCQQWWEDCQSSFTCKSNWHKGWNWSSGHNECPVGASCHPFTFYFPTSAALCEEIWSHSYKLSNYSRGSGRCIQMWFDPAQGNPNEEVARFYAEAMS
Chain of human FOLR1 recombinant protein (extracellular domain of human folate receptor alpha) (human) (P15328 25-233): as the sequence (P15328 25-233) above

B1: HA-tagged variant of VHH A1 (VHH)
VHH: QVQLQESGGGLVQPGGSLRLSCAASESIFSRNHMSWYRQAPGKQRELAAIITSDGNTNYPDSVKGRFTISRDNAKNTVYLQMNSLKPEDTAVYYCNTFGRSVAGFYDYWGQGTQVTVSS
notes: Used as VHH-containing bacterial (periplasmic) extract in ELISA; also called A1 HA-tag
- signal-to-background ratio [1]: ~1
- signal-to-background ratio [2]: ~1
- signal-to-background ratio [3]: ~1
- signal-to-background ratio [4]: > 20
- binding result [5]: no binding
- binding result [6]: no binding
- binding result [7]: no binding

B2: HA-tagged variant of VHH A2 (VHH)
VHH: QVQLQESGGGLVQAGGSLRLSCAADEMKFSNYDLAWYRRAPGKQRELAAIITSGGSTNYPDSVKGRFTISRDNAKNTVYLEMNSLKPEDTAVYYCNALRPWPQFSDYWGQGTQVTVSS
notes: Used as VHH-containing bacterial (periplasmic) extract in ELISA; also called A2 HA-tag
- signal-to-background ratio [2]: ~1
- signal-to-background ratio [3]: ~1
- signal-to-background ratio [4]: > 20
- binding result [6]: no binding
- binding result [7]: no binding

B3: His6-tagged variant of VHH A2 (VHH)
VHH: B2 VHH with Q1D, Q5V
notes: Purified, unlabelled; also called A2 His6-tag
- Kd [8]: 1.5 nM
- koff [8]: 0.00068 s⁻¹
- kon [8]: 440000 M⁻¹ s⁻¹
- loss in response level of VHH 2 relative to VHH 2 injected alone [9]: -86%
- loss in response level of VHH 2 relative to VHH 2 injected alone [10]: -96%
- Kd [11]: 0.24 nM
- koff [11]: 0.00033 s⁻¹
- kon [11]: 1.3e+06 M⁻¹ s⁻¹
- loss in response level of VHH 2 relative to VHH 2 injected alone [12]: -99%
- loss in response level of VHH 2 relative to VHH 2 injected alone [13]: -96%

B4: His6-tagged variant of VHH A3 (VHH)
VHH: DVQLVESGGGLVQAGGSLRLSCGVSGNMFSMNLMGWYRQPPGKERDWVAVITKDGSTNYADSVKGRFTISRDNAKNTVSLQMNSLKPEDTAVYYCNVQDGSGWIRAWGWDWGQGTQVTVSS
notes: Purified, unlabelled; also called A3 His6-tag
- Kd [8]: 1.9 nM
- koff [8]: 0.00063 s⁻¹
- kon [8]: 330000 M⁻¹ s⁻¹
- loss in response level of VHH 2 relative to VHH 2 injected alone [9]: -89%
- loss in response level of VHH 2 relative to VHH 2 injected alone [10]: -97%
- Kd [11]: 0.92 nM
- koff [11]: 0.0011 s⁻¹
- kon [11]: 1.2e+06 M⁻¹ s⁻¹
- loss in response level of VHH 2 relative to VHH 2 injected alone [13]: -97%

B5: 131I-labeled His6-tagged VHH A4 (VHH)
VHH: DVQLVESGGGLARAGGSLRLSCAASGRAFSSTYAMGWFRQAPGKEREFVADINWSEGSPMYIDSVKDRFTISRDNARNSLYLQMNSLKSEDTAVYYCAARRFGQGYEYWGQGTQVTVSS
modifications: [131I]SGMIB conjugated to lysine side-chain amine groups
- EC50 [14]: 5.8 nM
- cell-associated fraction of initial bound activity after 24 h [15]: 10%

B6: 131I-labeled His6-tagged VHH A3 (VHH)
VHH: B4 VHH
modifications: [131I]SGMIB conjugated to lysine side-chain amine groups
- EC50 [14]: 4.5 nM
- cell-associated fraction of initial bound activity after 24 h [15]: 20%

B7: 131I-labeled His6-tagged VHH A1 (VHH)
VHH: B1 VHH with Q1D, Q5V
modifications: [131I]SGMIB conjugated to lysine side-chain amine groups
- EC50 [14]: 0.7 nM
- cell-associated fraction of initial bound activity after 24 h [15]: ~40%

B8: 131I-labeled His6-tagged VHH A2 (VHH)
VHH: B2 VHH with Q1D, Q5V
modifications: [131I]SGMIB conjugated to lysine side-chain amine groups
- EC50 [14]: 1.1 nM
- cell-associated fraction of initial bound activity after 24 h [15]: ~60%
